Assay results from US20140162285A1, “Methods of Modulating Vesicular Trafficking” (The General Hospital Corporation, priority 2009, published 2014).

Target: T1, ARNO's GEF activity with Arf6 (Homo sapiens, UniProt Q99418)
T1 sequence (Q99418 1-400): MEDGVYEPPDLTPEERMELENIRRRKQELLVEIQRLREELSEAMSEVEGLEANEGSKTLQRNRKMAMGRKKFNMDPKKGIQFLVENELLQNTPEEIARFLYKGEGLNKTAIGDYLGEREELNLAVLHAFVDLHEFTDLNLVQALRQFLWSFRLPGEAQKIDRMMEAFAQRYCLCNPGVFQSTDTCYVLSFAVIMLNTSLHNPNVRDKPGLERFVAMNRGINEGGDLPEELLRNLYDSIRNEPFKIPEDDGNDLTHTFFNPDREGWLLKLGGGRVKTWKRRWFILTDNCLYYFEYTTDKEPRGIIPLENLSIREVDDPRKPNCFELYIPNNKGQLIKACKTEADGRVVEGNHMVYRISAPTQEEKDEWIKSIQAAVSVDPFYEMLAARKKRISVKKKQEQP
Assay: radiolabel GDP/GTP-exchange (GEF) activity assay of ARNO with Arf6
Type: biochemical
Details: recombinant protein
Procedure: To test the effect of V-ATPase-derived peptides on enzymatic activity of small GTPases, the GDP/GTP exchange activity assay of ARNO with Arf6 was established in the presence of GTPγS and phospholipids vesicles containing various amounts of phosphatidylinositol PIP2 (FIG. 8).
Phospholipid vesicles were prepared by the extrusion method (Macia and Paris Biochemistry, 39: 5893-5901 (2000)). The lipids were dissolved in chloroform. A film of phospholipids was formed by evaporating chloroform and was resuspended in 50 mM Hepes, pH 7.5, and 1 mM dithiothreitol. The suspension was freeze-thawed 3 times and was passed through a 0.1 μm pore size polycarbonate filter.
GDP/GTP-exchange activity of ARNO was measured using time-course radiolabel based assay as previously described (Santy et al., Curr Biol. 9:1173-1176 (1999)). […] After washing filters 3 times with 2 ml of stop buffer, radioactivity was quantified using Perkin-Elmer “Tri-Carb 2900TR” liquid-scintillation counter.
In peptide-inhibition experiments, 500 nM of recombinant ARNO were incubated in the presence of different amounts (0-2000 nM) of FITC-a2N-01-TAT peptide or FITC-TAT peptide as a control. […] The enzymatic activities were followed for 30 min at 37° C. and radioactivity of aliquots were analyzed as described above.

- modulation of GDP/GTP-exchange activity of ARNO: successfully used to modulate
B1: a2N: recombinant N-terminal cytosolic tail, amino acid residues 1-402 of mouse V-ATPase a2-subunit (protein)
chain: MGSLFRSESMCLAQLFLQSGTAYECLSALGEKGLVQFRDLNQNVSSFQRKFVGEVKRCEELERILVYLVQEITRADIPLPEGEASPPAPPLKHVLEMQEQLQKLEVELREVTKNKEKLRKNLLELVEYTHMLRVTKTFLKRNVEFEPTYEEFPALENDSLLDYSCMQRLGAKLGFVSGLIQQGRVEAFERMLWRACKGYTIVTYAELDECLEDPETGEVIKWYVFLISFWGEQIGHKVKKICDCYHCHIYPYPNTAEERREIQEGLNTRIQDLYTVLHKTEDYLRQVLCKAAESVCSRVVQVRKMKAIYHMLNMCSFDVTNKCLIAEVWCPEVDLPGLRRALEEGSRESGATIPSFMNTIPTKETPPTLIRTNKFTEGFQNIVDAYGVGSYREVNPALFTII
modifications: left off: small tags and cut ends
notes: recombinant N-terminal cytosolic tail, amino acid residues 1-402 of mouse V-ATPase a2-subunit
